Assay [1] deals with human CUB domain-containing protein 1 (CDCP1), expressed by cells (human) (UniProt Q9H5V8). In words: flow cytometry of PANC-1 cells, 5 µg/ml antibody, APC-conjugated anti-mouse secondary; number in the IgG column (paragraph 330 calls the numbers of the 10D7 column MFI).
For assay [2] the target is unchanged. The assay is described as follows: flow cytometry of TKCC02 cells, 5 µg/ml antibody, APC-conjugated anti-mouse secondary; number in the IgG column (paragraph 330 calls the numbers of the 10D7 column MFI). For orientation: Flow cytometry measures light scatter and fluorescence of single cells or particles in a stream.
For assay [3] the target is unchanged. In words: flow cytometry of TKCC10 cells, 5 µg/ml antibody, APC-conjugated anti-mouse secondary; number in the IgG column (paragraph 330 calls the numbers of the 10D7 column MFI).
The target is the same in assay [4]. The assay is described as follows: flow cytometry of TKCC05 cells, 5 µg/ml antibody, APC-conjugated anti-mouse secondary; number in the IgG column (paragraph 330 calls the numbers of the 10D7 column MFI).
The test system of the next assay is CDCP1^GFP in HEY cells. In words: Live-cell spinning-disk confocal microscopy of HEY-CDCP1^GFP cells. Format: cell-based. The following applies: dasatinib 200 nM pre-treatment. As to the method:
Live-cell spinning-disk confocal imaging was performed as described (Stehbens S J, et al., (2014) 16(6):561-73.) on an environmentally controlled Nikon TI inverted microscope (Nikon, New York) equipped with a Borealis-modified Yokogawa CSU-X1 confocal head (Spectral Applied Research, Ontario Canada) and a Clara cooled interline charge-coupled device (CCD) camera (Andor Technology, Belfast, United Kingdom). Dynamics of fluorescent proteins were imaged at 37° C. using a 60×1.49 NA objective (Nikon) with imaging of CDCP1^GFP internalization induced by 10D7^pH performed at ˜1 frame/sec. Image analysis and quantification was performed using Imaris 7.1 software (Bitplane, Zurich, Switzerland) (Morton J P, et al., (2010) 139(1):292-303.). Briefly, the Spots creation wizard automatically subtracted background and detected CDCP1^GFP puncta which were filtered for analysis based on threshold values above 20 for ‘quality’ defined as the intensity at the centre of the puncta, Gaussian filtered by […] (Doyon J B, et al., (2011)13(3):331-7.). Puncta were tracked over sequential frames using the Autoregressive motion particle-tracking algorithm. […] Quantification of track length during the period 0-5 min was determined from the 100 tracks with the highest velocity in each experimental group. […]

Assay [5] deals with T1, human CUB domain-containing protein 1 (CDCP1), expressed by cells (human, UniProt Q9H5V8 30-836).
T1 construct: also called CDCP1-FL; CD318
T1 sequence: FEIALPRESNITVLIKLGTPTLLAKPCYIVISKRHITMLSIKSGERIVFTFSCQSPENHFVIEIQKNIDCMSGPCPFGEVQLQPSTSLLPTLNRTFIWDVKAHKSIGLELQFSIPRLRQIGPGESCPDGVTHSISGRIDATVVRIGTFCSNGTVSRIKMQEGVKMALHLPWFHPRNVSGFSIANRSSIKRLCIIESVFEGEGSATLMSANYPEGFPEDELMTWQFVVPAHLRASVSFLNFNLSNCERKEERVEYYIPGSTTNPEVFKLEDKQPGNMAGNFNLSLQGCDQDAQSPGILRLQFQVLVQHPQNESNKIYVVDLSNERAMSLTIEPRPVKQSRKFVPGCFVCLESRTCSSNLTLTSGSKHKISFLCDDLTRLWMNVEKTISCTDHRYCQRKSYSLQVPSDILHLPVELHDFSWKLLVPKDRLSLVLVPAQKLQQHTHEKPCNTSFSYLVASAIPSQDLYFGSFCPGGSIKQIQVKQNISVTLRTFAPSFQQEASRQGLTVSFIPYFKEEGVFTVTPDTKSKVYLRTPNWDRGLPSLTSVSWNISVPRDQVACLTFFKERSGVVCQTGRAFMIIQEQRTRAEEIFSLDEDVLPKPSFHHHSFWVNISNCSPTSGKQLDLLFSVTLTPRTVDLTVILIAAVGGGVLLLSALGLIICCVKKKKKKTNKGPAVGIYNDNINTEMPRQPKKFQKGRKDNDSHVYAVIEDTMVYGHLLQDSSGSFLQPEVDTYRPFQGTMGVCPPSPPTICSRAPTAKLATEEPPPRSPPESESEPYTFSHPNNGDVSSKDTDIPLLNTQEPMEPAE
In words: summary of co-IP, SEC and reducing/non-reducing Western blots. For orientation: Immunoblotting shows a protein as a band on a membrane.

In assay [6] the target is T2, recombinant CDCP1-ECD, spanning residue 30 to 665 (human, UniProt Q9H5V8 30-665).
T2 construct: Recombinant protein described in Chen Y et al. 2017; also called CDCP1 extracellular domain (ECD)
T2 sequence: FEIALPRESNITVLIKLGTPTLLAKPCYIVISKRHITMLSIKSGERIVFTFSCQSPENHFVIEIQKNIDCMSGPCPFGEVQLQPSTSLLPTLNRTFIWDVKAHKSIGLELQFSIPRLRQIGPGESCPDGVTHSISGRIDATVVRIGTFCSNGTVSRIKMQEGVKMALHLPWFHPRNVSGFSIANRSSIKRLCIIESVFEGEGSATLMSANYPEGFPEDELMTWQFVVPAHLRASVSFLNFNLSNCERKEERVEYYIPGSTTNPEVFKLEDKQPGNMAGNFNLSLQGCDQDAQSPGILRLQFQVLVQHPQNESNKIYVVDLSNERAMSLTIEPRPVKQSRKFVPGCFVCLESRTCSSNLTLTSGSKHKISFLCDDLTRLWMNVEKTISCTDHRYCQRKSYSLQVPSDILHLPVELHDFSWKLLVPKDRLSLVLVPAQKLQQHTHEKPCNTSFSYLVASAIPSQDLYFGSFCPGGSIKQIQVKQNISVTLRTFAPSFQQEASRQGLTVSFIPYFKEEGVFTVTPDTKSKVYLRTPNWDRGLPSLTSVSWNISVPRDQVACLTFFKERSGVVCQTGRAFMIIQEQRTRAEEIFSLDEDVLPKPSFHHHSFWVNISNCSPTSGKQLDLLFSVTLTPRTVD
The assay is described as follows: SPR, Biacore T200, antibody captured via Protein G, CDCP1-ECD analyte; reference 41-2. On the technique in general: SPR reads the build-up and loss of mass on a sensor chip optically.

For assay [7], the target named is T2, recombinant CDCP1-ECD, spanning residue …. In words: SPR, Biacore T200, antibody captured via Protein G on CM5 chip, CDCP1-ECD analyte 50 to 1.56 nM, 25 C.
Assay [8] has the same target. In words: SPR (Biacore T200), antibody captured via Protein G on a CM5 chip, CDCP1-ECD 1.56 to 50 nM as analyte, 25 °C.
The next assay relates to TKCC05 cells. In words: Confocal microscopy of TKCC05 cells treated with 10D7-Qdot. Format: cell-based, human. As to the method: Labelling of antibody 10D7 with fluorescent Qdot 625 probes was performed using a kit supplied by the manufacturer. TKCC05 cells were grown on poly-Lysine treated […] chamber slides (DKSH, Hallam, Australia) until 70% confluent then incubated with 10D7-Qdot. After 5, 10 and 120 min cells were fixed with 4% paraformaldehyde for 15 min at room temperature (RT), washed with PBS, then incubated with DAPI to highlight cell nuclei and Alexa Fluor 488 phalloidin to highlight cell cytoplasms (30 min at RT). Imaging was performed on a Nikon/Spectral Spinning Disc Confocal microscope.
To assess the impact of antibody 10D7 on CDCP1 expressed by PDAC, the inventors performed confocal microscopy and western blot analysis of patient-derived PDAC cells treated with this antibody for defined periods of time. […] Western blot analysis confirmed that 10D7 induces rapid transient tyrosine phosphorylation of CDCP1-ATF in TKCC05 cells and CDCP1-FL in TKCC10 cells, while Src was also transiently tyrosine phosphorylated in these cells in response to 10D7 (FIG. 11B). […] The data are consistent with CDCP1-ATF remaining tethered to the plasma membrane likely via CDCP1-CTF and indicate that intact and cleaved CDCP1 can be functionally targeted with antibody 10D7 in PDAC cells. Thus, antibody 10D7 is effective at targeting uncleaved as well as cleaved CDCP1 that are present on the surface of cancer cells.

Consider IgG (antibody), for which the MFI came to 202 in [1], 216 in assay [2], 133 in [3] and 234 in assay [4].
Consider `Cc1nc(Nc2ncc(C(=O)Nc3c(C)cccc3Cl)s2)cc(N2CCN(CCO)CC2)n1` [dasatinib], for which, in the assay with CDCP1^GFP in HEY cells, the “reduction of CDCP1^GFP track length in response to 10D7” value is listed as “about 80%”.

B1: CDCP1 amino-terminal fragment (CDCP1-ATF), 65 kDa (receptor)
chain: FEIALPRESNITVLIKLGTPTLLAKPCYIVISKRHITMLSIKSGERIVFTFSCQSPENHFVIEIQKNIDCMSGPCPFGEVQLQPSTSLLPTLNRTFIWDVKAHKSIGLELQFSIPRLRQIGPGESCPDGVTHSISGRIDATVVRIGTFCSNGTVSRIKMQEGVKMALHLPWFHPRNVSGFSIANRSSIKRLCIIESVFEGEGSATLMSANYPEGFPEDELMTWQFVVPAHLRASVSFLNFNLSNCERKEERVEYYIPGSTTNPEVFKLEDKQPGNMAGNFNLSLQGCDQDAQSPGILRLQFQVLVQHPQNESNKIYVVDLSNERAMSLTIEPRPVKQSR
notes: Product of proteolytic cleavage of CDCP1
For the molecule B1, in assay [5], the binding result was “binds”.

B2: anti-CDCP1 mouse monoclonal antibody 10D7 (antibody, V domains shown)
VH: EVQLQQFGAELVKPGASVKISCKASGYSFSDFNIEWLKQSHGKSLEWIGDINPNYDSTNYNQKFKGRATLTVDKSSSTAYMEVRSLTSEDTAVYYCARLGYGYAMDYWGQGTSVTVSS
VL: NIVMTQSPQSMSMSVGERVTLSCKASENVGAYVSWFQQKPDQSPKLLILAASNRYTGVPARFIGSGSATDFTLTISSVQAEDLADYHCGQSYTYPYTFGGGTKLEIKR
notes: also called mAb 10D7; mouse 10D7 antibody
On to B2, for which the “fold stronger KD than 41-2” value in assay [6] stood at 2.7 fold. For the same molecule, in assay [7], the equilibrium dissociation constant (Kd) stood at 0.44 nM. In [8], the koff was determined as 0.000441 s⁻¹ and the kon worked out at 1e+06 M⁻¹ s⁻¹.

B3: 10D7-Qdot (conjugate)
VH: B2 VH
VL: NIVMTQSPQSMSMSVGERVTLSCKASENVGAYVSWFQQKPDQSPKLLILAASNRYTGVPARFIGSGSATDFTLTISSVQAEDLADYHCGQSYTYPYTFGGGTKLEIKRADAAPTVS
Regarding B3, in the assay on TKCC05 cells, the “time until apparent on the plasma membrane” value is no more than 5 min. The internalization of antibody result with TKCC05 cells (after 120 min) is given as “largely internalized”.

The Kd is a measure of binding affinity in units of concentration. For orientation: koff means the first-order rate constant of dissociation. What is called kon is the rate constant with which the complex forms.

(Values after patent publication US20220389113A1, “BINDING PROTEINS TO CUB DOMAIN-CONTAINING PROTEIN (CDCP1)” (COMMONWEALTH SCIENTIFIC AND INDUSTRIAL RESEARCH ORGANISATION, priority 2019, published 2022).)
